The values that follow are results of earlier work, collected in article PMC10872408 (Structure (London, England : 1993), 2023).

pKd: −log10 of the molar value.

For the data set, the target named is Gαi3 (Rattus norvegicus) (UniProt P08753). The note with it: cited from earlier work.
Gαi3 (Rattus norvegicus), sequence (P08753 2-354): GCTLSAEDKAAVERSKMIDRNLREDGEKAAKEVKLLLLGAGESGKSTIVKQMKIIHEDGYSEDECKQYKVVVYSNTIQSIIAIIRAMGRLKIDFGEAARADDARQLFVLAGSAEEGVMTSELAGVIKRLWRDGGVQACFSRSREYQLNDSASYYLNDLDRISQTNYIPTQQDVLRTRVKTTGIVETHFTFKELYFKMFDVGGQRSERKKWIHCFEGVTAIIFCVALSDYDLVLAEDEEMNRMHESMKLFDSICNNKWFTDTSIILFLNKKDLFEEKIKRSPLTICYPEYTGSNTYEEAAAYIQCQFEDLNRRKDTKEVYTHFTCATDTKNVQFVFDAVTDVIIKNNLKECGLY

GINIP, sequence (Q9UPV7 2-400): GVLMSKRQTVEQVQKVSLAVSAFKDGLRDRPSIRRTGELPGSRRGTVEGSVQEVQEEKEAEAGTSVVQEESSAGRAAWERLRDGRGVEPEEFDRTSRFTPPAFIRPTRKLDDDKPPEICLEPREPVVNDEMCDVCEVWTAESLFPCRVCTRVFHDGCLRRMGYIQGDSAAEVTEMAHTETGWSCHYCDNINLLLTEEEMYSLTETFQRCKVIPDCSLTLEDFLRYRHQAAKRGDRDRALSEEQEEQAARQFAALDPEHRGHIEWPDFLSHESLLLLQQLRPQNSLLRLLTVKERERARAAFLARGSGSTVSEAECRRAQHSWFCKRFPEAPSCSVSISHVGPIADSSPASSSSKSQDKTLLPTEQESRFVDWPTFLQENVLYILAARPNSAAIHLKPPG

In the case of GINIP (from UniProt Q9UPV7), the pKd was 7.19.
